B1: Azoarcus group I ribozyme (parent)
chain: GUGCCUUGCGCCGGGAAACCACGCAAGGGAUGGUGUCAAAUUCGGCGAAACCUAAGCGCCCGCCCGGGCGUAUGGCAACGCCGAGCCAAGCUUCGGCGCCUGCGCCGAUGAAGGUGUAGAGACUAGACGGCACCCACCUAAGGCAAACGCUAUGGUGAAGGCAUAGUCCAGGGAGUGGCGAAAGUCACACAAACCGG

Variants of: B1
Experiment: reverse-splicing fitness (ratio to wild type); higher = more active; in vitro selection; Mg2+ level not given
Method in brief: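 An in vitro group I ribozyme library with randomized positions was T7-transcribed and gel-purified. In triplicate, 10 pmol RNA in EPPS pH 7.5 was reacted with 50 pmoles of a 30-nt RNA substrate for 1 h at 37 °C across several added MgCl2 levels (1–48 mM), then stopped with EDTA. Products were reverse transcribed from a substrate-complementary primer, PCR-amplified and sequenced (HiSeq 4000). Fitness is a variant's read proportion after selection over that before, normalised to wild type.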

Variant | reverse-splicing fitness
C82U A111C A120U A145G C169U U176C | 0.00342
C82U A111C A120U A145G C169U U176A | 0.00527
C82U A111C A120U A145G C169U U176G | 0.00206
C82U A111C A120U A145U C169A U176A | 0.00299
C82U A111C A120U A145U C169A U176G | 0.00168
C82U A111C A120U A145U C169A U176C | 0.00251
C82U A111C A120U C150U C169A U176A | 0.00486
C82U A111C A120U C150U C169A U176G | 0.00291
C82U A111C A120U C150U C169A U176C | 0.00372
C82U A111C A145C C150U C169U | 0.00891
C82U A111C A145C C150U C169G | 0.00727
C82U A111C A145C C150U C169A | 0.00854
C82U A111C A120U A145C C150G C169G U176A | 0.0028
C82U A111C A120U A145C C150G C169G U176G | 0.00241
C82U A111C A120U A145C C150G C169G U176C | 0.00262
C82U A111C A120U A145U C150G C169U U176G | 0.0025
C82U A111C A120U A145U C150G C169U U176C | 0.00264
C82U A111C A120U A145U C150G C169U U176A | 0.00227
C82U A111C A120U A145C C150A C169A | 0.00255
C82U A111C A120U A145C C150A C169G | 0.00233
C82U A111C A120U A145C C150A C169U | 0.00301

Variant | reverse-splicing fitness
C82U A111C A120U A145C C150G C169U | 0.00396
C82U A111C A120U A145C C150G C169A | 0.00271
C82U A111C A120U A145C C150G C169G | 0.00351
C82U A111C A145C C169U | 0.0113
C82U A111C A145C C169A | 0.00714
C82U A111C A145C C169G | 0.00983
C82U A111C A120U A145C C150G U176A | 0.00275
C82U A111C A120U A145C C150G U176C | 0.00485
C82U A111C A120U A145C C150G U176G | 0.00239
C82U A111C A120U A145G C150G C169A U176G | 0.00495
C82U A111C A120U A145G C150G C169A U176A | 0.0114
C82U A111C A120U A145G C150G C169A U176C | 0.00788
C82U A111C A120U A145C C150U C169G | 0.00293
C82U A111C A120U A145C C150U C169U | 0.00319
C82U A111C A120U A145C C150U C169A | 0.00253
C82U A111C A120U C169U U176A | 0.0057
C82U A111C A120U C169U U176G | 0.00178
C82U A111C A120U C169U U176C | 0.00419
C82U A111C A120U A145G C150U C169A U176C | 0.00367
C82U A111C A120U A145G C150U C169A U176A | 0.00691
C82U A111C A120U A145G C150U C169A U176G | 0.00262

Variant | reverse-splicing fitness
C82U A111C A145C C150A U176C | 0.0145
C82U A111C A145C C150A U176A | 0.0114
C82U A111C A145C C150A U176G | 0.00685
C82U A111C A145C C150A C169U U176C | 0.0106
C82U A111C A145C C150A C169U U176G | 0.00709
C82U A111C A145C C150A C169U U176A | 0.0154
C82U A111C A120U C150G C169A U176C | 0.00467
C82U A111C A120U C150G C169A U176G | 0.00261
C82U A111C A120U C150G C169A U176A | 0.00624
C82U A111C A120U A145C C150G C169U U176G | 0.00217
C82U A111C A120U A145C C150G C169U U176A | 0.00332
C82U A111C A120U A145C C150G C169U U176C | 0.00284
C82U A111C A145C C169G U176G | 0.00669
C82U A111C A145C C169G U176C | 0.0207
C82U A111C A145C C169G U176A | 0.0274
C82U A111C A120U A145G C150G U176G | 0.00395
C82U A111C A120U A145G C150G U176A | 0.00648
C82U A111C A120U A145G C150G U176C | 0.00806
C82U A111C A120U A145G C169G U176G | 0.0017
C82U A111C A120U A145G C169G U176C | 0.00344
C82U A111C A120U A145G C169G U176A | 0.00323

Variant | reverse-splicing fitness
C82U A111C A120U A145G C150A C169G | 0.00517
C82U A111C A120U A145G C150A C169A | 0.00616
C82U A111C A120U A145G C150A C169U | 0.0043
C82U A111C A145C C169U U176A | 0.0157
C82U A111C A145C C169U U176C | 0.0113
C82U A111C A145C C169U U176G | 0.00632
C82U A111C A120U A145C C169G U176C | 0.00215
C82U A111C A120U A145C C169G U176G | 0.00186
C82U A111C A120U A145C C169G U176A | 0.00206
C82U A111C A120U A145G C169G | 0.0042
C82U A111C A120U A145G C169A | 0.00276
C82U A111C A120U A145G C169U | 0.00448
C82U A111C A120U A145C C150A U176A | 0.00307
C82U A111C A120U A145C C150A U176G | 0.00265
C82U A111C A120U A145C C150A U176C | 0.00397
C82U A111C A120U A145U C150U C169G U176G | 0.00201
C82U A111C A120U A145U C150U C169G U176C | 0.00305
C82U A111C A120U A145U C150U C169G U176A | 0.00231
C82U A111C A120U A145C C150U U176A | 0.00424
C82U A111C A120U A145C C150U U176C | 0.00591

Reference: the RNAGym collection of RNA variant scans (doi:10.1093/molbev/msab373)
